According to patent US20160257710A1, “SELECTIVE INHIBITORS OF PROTEINASE 3” (INSERM (INSTITUT NATIONAL DE LA SANTÉ ET LA RECHERCHE …, priority 2013, published 2016):
Changes are numbered by the printed parent chain. Where no end group is shown, it is not given here. [ ]: non-standard residue; d: D form. AlaP = not defined here

Tests used:
Type in all cases: biochemical
PR3 = target: T1, PR3 (Homo sapiens, UniProt P24158); experiment: Inhibition of protease activity in crude lung secretions of patients (IPF, cystic fibrosis); conditions: 30 min incubation, IPF and CF samples
T1 construct: in a lysate of purified human neutrophils; endogenous in cells; host or cells: purified human neutrophils (lysate)
T1 sequence (P24158 28-248): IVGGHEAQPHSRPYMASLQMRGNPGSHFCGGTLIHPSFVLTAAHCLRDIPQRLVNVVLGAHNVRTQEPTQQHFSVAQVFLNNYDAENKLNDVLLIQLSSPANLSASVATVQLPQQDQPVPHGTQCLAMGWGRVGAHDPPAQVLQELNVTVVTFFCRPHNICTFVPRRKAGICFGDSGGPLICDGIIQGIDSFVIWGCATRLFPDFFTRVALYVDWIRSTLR
Protocol: Crude lung secretions of patients with chronic inflammatory disorders associating significant neutrophil recruitment (IPF, Cystic fibrosis) were used as biological material to assay the efficacy of phosphonate inhibitors. We first measured the rate of cleavage of the PR3 substrate in >3 IPF and >3 CF crude samples before and after incubation with compounds 2 and 4 (×μM final). All crude samples cleaved the PR3 substrate in the absence of inhibitor and the cleavage always occurred at the expected bond, i.e. the cleavage bond of PR3, as checked by HPLC. The PR3 concentration was in the 0.1-1 μM range in lung secretions, based on the rate of substrate hydrolysis. […] Further, the rate of PR3 inactivation in a crude biological sample […] that of purified PR3, which means that there is no adverse effect impairing the PR3 inhibition in lung secretions of patients with inflammatory disorders.

PR3I217R = target: T2, PR3I217R (Homo sapiens, UniProt P24158, I221R); experiment: Residual activity of recombinant PR3 mutant in presence of increasing amounts of compound
T2 construct: made in house; host or cells: Drosophila S2 cells
T2 sequence (P24158 28-248 I221R limits assumed): T1 sequence (P24158 28-248) with I194R
Protocol: (§1) Recombinant PR3K99L and […] were produced in Drosophila S2 cells using the calcium phosphate method, and stable cell lines were selected using puromycin. Proteins were purified by affinity chromatography on Chelating Sepharose and analyzed by SDS-PAGE. The total protein concentration was determined with a BCA Protein Assay
(§2) Phosphonate inhibitors and their biotinylated and fluorescent derivatives were synthesized, purified and controlled by mass spectrometry as reported. Their purity was checked by HPLC (data not shown). Purified Ac-Asp-Tyr-Asp-Ala^P(O—C6H4-4-Cl)2 (compound 1) and Ac-Pro-Tyr-Asp-Ala^P(O—C6H4-4-Cl)2 (compound 2) were first assayed for their inhibitory properties by measuring the residual activity of the human neutrophil serine proteases PR3, HNE and CatG in the presence of increasing amounts of each compound. We used for this purpose the FRET substrates that we developed previously for each protease (18). An almost complete inhibition of PR3 (1 nM final) was obtained after a 30 min incubation time with 20 μM of compound 1 (FIG. 1) and 0.3 μM of compound 2 (FIG. 2). Recombinant PR3K99L, […], HNE and CatG were used in the same experimental conditions. […] This emphasizes the importance of the S2 and S4 subsites to discriminate between PR3 and HNE specificities. Significant inhibition of HNE was obtained using about 100 times more Ac-Pro-Tyr-Asp-Ala^P(O—C6H4-4-Cl)2 than required to inhibit PR3. […] We confirmed this observation kinetically by measuring the second order rate constants kobs/l by competition experiments between the PR3 substrate and each inhibitor (17). As expected the second order rate constant kobs/l for compound 2 was about 100 times greater than that for compound 1 (see Table 1).

PR3K99L = target: T3, PR3K99L (Homo sapiens, UniProt P24158, K115L); experiment: as above; conditions: Lys99 replaced by Leu in S2 subsite
T3 construct: made in house; host or cells: Drosophila S2 cells
T3 sequence (P24158 28-248 K115L limits assumed): T1 sequence (P24158 28-248) with K88L
Protocol: as §1, §2

Ac-Pro-Tyr-Asp-Ala^P(O—C6H4-4-Cl)2 (Ac-PYD[AlaP]; not fully specified (C-terminus); printed as Ac-Pro-Tyr-Asp-Ala^P(O—C6H4-4-Cl)2; reading uncertain; also: C-terminal Ala as phosphonate analogue (Ala^P)) [Compound 2]
hydrolysis of PR3 substrate in crude lung secretions (PR3): total inhibition
inhibition of the Ile217 to Arg217 PR3 mutant compared with PR3K99L (PR3I217R): more efficient toward this mutant
sensitivity of PR3K99L to inhibition compared with wt PR3 (PR3K99L): far less sensitive to inhibition
